Experimental data from paper PMC8750366, “Role of the Redox State of Human Peroxiredoxin-5 on Its TLR4-Activating DAMP Function” (Antioxidants, 2021).
Values joined by “and” are separate entries in the source; they are usually repeats but may differ in a detail not shown here. Equal values may be shown once.

B1: chemically reduced and alkylated recombinant human peroxiredoxin-5 (enzyme)
chain: APIKVGDAIPAVEVFEGEPGNKVNLAELFKGKKGVLFGVPGAFTPGCSKTHLPGFVEQAEALKAKGVQVVACLSVNDAFVTGEWGRAHKAEGKVRLLADPTGAFGKETDLLLDDSLVSIFGNRRLKRFSMVVQDGIVKALNVEPDGTGLTCSLAPNIISQL
modifications: cysteine thiols alkylated with iodoacetamide (carbamidomethyl groups), more likely on the two Cys involved in the disulfide bond (C47, C151)
notes: human peroxiredoxin-5 (PRDX5), wild type, same construct as m1; Made from m1 by chemical treatment; Mainly a dimer by SEC-MALS; also called r/aPRDX5; reduced PRDX5; source: dsPRDX5 (E. coli M15, purified) treated with 10 mM DTT, then 55 mM iodoacetamide, ultra-filtered; not shown: His6, N-terminal, kept
B2: hyperoxidized recombinant human peroxiredoxin-5 (enzyme)
chain: B1 chain
modifications: Cys sulfinic (-SO2H) and/or sulfonic (-SO3H) acids; only partially hyperoxidized (~42% of species), a proportion of species keeps the disulfide bridge
notes: human peroxiredoxin-5 (PRDX5), wild type, same construct as m1; Made from m1 by chemical treatment; a mix of species; Mainly a dimer by SEC-MALS; also called s/sPRDX5; hyperoxidized PRDX5; source: dsPRDX5 (E. coli M15, purified) treated with 10 mM DTT, then 5 mM H2O2, ultra-filtered; not shown: His6, N-terminal, kept
B3: recombinant wild-type N-terminal 6xHis-tagged human peroxiredoxin-5, disulfide (oxidized) form (enzyme)
chain: B1 chain
modifications: disulfide bridge between C47 and C151
notes: human peroxiredoxin-5 (PRDX5), wild type; calculated mass with reduced thiols 18,297.81 Da; Mainly a dimer by SEC-MALS, with ~30% monomers; also called dsPRDX5; PRDX5; source: E. coli M15 (pRep4), pQE-30, purified (Ni-NTA), dialyzed against PBS; not shown: His6, N-terminal, kept

What was measured:
[1] = target: TLR4-YFP stably expressed on HEK293 MD2-CD14 cells (UniProt O00206)
Sequence of TLR4-YFP stably expressed on HEK293 MD2-CD14 cells (UniProt O00206) (O00206 24-839): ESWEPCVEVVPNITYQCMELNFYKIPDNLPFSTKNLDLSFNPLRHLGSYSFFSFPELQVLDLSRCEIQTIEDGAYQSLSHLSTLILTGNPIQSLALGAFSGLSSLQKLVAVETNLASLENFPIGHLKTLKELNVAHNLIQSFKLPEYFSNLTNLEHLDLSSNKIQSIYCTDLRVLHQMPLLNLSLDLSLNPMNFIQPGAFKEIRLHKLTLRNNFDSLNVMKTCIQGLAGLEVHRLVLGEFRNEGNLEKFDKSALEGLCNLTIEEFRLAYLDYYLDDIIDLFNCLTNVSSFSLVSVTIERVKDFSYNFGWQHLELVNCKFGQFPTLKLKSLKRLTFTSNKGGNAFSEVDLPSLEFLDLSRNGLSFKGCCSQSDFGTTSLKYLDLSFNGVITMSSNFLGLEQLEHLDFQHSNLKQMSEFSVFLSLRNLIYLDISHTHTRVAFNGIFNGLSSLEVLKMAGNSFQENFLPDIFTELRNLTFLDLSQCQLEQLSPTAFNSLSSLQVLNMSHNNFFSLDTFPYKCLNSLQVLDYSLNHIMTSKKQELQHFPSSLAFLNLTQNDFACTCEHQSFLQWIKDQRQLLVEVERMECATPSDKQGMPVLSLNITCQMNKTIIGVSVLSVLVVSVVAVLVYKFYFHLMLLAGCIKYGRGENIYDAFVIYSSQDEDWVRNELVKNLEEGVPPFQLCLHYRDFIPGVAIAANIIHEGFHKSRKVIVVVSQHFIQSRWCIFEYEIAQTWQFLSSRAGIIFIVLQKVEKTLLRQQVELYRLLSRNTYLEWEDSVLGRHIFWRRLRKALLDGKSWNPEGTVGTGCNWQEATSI

[2] = target: C47S mutant N-terminal 6xHis-tagged human peroxiredoxin-5 (human); assay: SEC-MALS; 50 µL loaded on Superdex 200 Increase 10/300 GL (and Superdex 75 Increase, data not shown), PBS running buffer pH 7.4; Zimm fit
[3] = target: TLR4-YFP stably expressed on HEK293 MD2-CD14 cells (UniProt O00206); assay: flow cytometry on cells; living HEK293 MD2-CD14 TLR4 cells exposed to 1 µM of the PRDX5 redox forms or increasing dsPRDX5 in DMEM, 40 min on ice; detected with anti-PRDX5 serum and Alexa Fluor 647 Plus secondary antibody; MFI of untreated cells subtracted
[4] = target: recombinant human TLR4 (R&D Systems) (human) (UniProt O00206); assay: AFM single-molecule force spectroscopy; PRDX5 grafted on the AFM tip by a PEG24 linker, TLR4 covalently attached to an alkanethiol SAM on gold (NHS/EDC); PBS, ~25 °C; retraction speeds 100 nm/s to 10 µm/s; Bell-Evans fit
Sequence of recombinant human TLR4 (R&D Systems) (human) (O00206 24-631): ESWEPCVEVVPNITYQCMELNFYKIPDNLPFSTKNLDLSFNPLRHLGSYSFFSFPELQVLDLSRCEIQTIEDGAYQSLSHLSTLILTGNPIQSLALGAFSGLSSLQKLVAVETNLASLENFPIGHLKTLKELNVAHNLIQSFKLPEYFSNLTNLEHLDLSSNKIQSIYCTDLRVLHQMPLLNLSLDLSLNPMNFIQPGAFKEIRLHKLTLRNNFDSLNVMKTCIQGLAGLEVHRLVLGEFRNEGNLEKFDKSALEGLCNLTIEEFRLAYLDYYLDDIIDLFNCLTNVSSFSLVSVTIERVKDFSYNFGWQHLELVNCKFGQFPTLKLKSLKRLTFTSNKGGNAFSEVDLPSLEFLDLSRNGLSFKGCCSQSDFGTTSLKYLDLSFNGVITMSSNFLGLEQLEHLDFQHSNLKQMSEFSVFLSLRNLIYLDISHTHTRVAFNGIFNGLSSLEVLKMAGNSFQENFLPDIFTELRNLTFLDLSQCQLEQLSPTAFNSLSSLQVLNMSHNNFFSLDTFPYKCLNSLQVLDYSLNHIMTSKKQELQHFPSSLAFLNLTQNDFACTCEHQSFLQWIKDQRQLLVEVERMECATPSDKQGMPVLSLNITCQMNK

[5] = target: the molecule itself; assay: SEC-MALS; 50 µL loaded on Superdex 200 Increase 10/300 GL (and Superdex 75 Increase, data not shown), PBS running buffer pH 7.4; Zimm fit
[6] = target: TLR4-YFP stably expressed on HEK293 MD2-CD14 cells (UniProt O00206 24-839); assay: cell-based or functional assay
Sequence of TLR4-YFP stably expressed on HEK293 MD2-CD14 cells (UniProt O00206 24-839) (O00206 24-839): as the sequence (O00206 24-839) above

| Molecule | IL-8 secretion from HEK293 MD2-CD14 TLR4 cells, 2 µM protein, 16 h, ELISA [1] | stoichiometry N [2] | fold decrease in binding propensity compared to dsPRDX5 [3] | koff [4] | stoichiometry N [5] | IL-8 secretion from HEK293 MD2-CD14 TLR4 cells, 2 µM protein, 16 h, ELISA [6] |
| --- | --- | --- | --- | --- | --- | --- |
| C47S mutant N-terminal 6xHis-tagged human peroxiredoxin-5 (enzyme) | 893 pg/mL | 2 and 4 | 3 fold | 1.97 s⁻¹ |  |  |
| recombinant wild-type N-terminal 6xHis-tagged human peroxiredoxin-5, disulfide (oxidized) form (from UniProt P30044 54-214) |  |  |  | 1.02 s⁻¹ |  |  |
| B1 |  |  |  | 2.47 s⁻¹ | 2 | 2440 pg/mL |
| B2 |  |  |  |  | 2 and 4 | 1450 pg/mL |
| B3 |  |  |  |  | 2 | 4610 pg/mL |
